In patent US20130122577, “KIT INCLUDING SEQUENCE SPECIFIC BINDING PROTEIN AND METHOD AND DEVICE FOR DETERMINING NUCLEOTIDE SEQUENCE OF TARGET NUCLEIC ACID” (Samsung Electronics Co., Ltd., published 2013):

What was measured:
[1] = target: ZF01 (two-finger zinc finger protein targeting AATTAG, YFP fusion) (Artificial Sequence); assay: EMSA; 20 mM bis-Tris propane pH 7.0, 100 mM NaCl, 5 mM MgCl2, 20 mM ZnSO4 (so in the source), room temperature 1 h; complementary strand SEQ 14 appears printed 3'-5'; conditions: tags: YFP fused via (Gly2Ser)2 linker; Ni-NTA purified from E. coli BL21(DE3), pET21b-YFP-ZF (1)
Experimental: (§1) In order to identify whether the sequence specific binding protein prepared in Example 2 specifically binds to the target nucleic acid, a gel mobility shift assay was performed.
(§2) First, a 20-mer oligonucleotide including the nucleotide sequences AATTAG or AACTGA, which the sequence specific binding protein may specifically recognize, was synthesized (SEQ ID NO. 13 to SEQ ID NO. 16). Subsequently, each of the oligonucleotides of SEQ ID NOS. 13 and 14, SEQ ID NOS. 15 and 16 was annealed to prepare a target nucleic acid. The prepared target nucleic acid and the protein prepared in Example 2 was added to a buffer solution (including 10 ml of 20 mM bis-Tris propane (pH 7.0); 100 mM NaCl; 5 mM MgCl₂; 20 mM ZnSO₄; 10% glycerol; 0.1% Nonidet P-40; 5 mM DTT; and 0.10 mg/ml BSA), followed by reaction at room temperature for about 1 hour. The reactant was subjected to non-denaturing PAGE and as a result as shown in FIG. 6 and FIG. 7, it was identified that a combined product of a target nucleic acid 1 (a polynucleotide fragment including AATTAG) or 2 (a polynucleotide fragment including AACTGA) with ZF01 or ZF02 respectively recognizing the nucleic acid 1 or 2 was shorter in mobility distance on the gel than a negative control group (target nucleic acid).

[2] = target: ZF02 (two-finger zinc finger protein targeting AACTGA, YFP fusion) (Artificial Sequence); assay: EMSA; 20 mM bis-Tris propane pH 7.0, 100 mM NaCl, 5 mM MgCl2, 20 mM ZnSO4 (so in the source), room temperature 1 h; complementary strand SEQ 16 appears printed 3'-5'; conditions: tags: YFP fused via (Gly2Ser)2 linker; Ni-NTA purified from E. coli BL21(DE3), pET21b-YFP-ZF (2)
Experimental: as §1, §2

Chain of ZF01 (two-finger zinc finger protein targeting AATTAG, YFP fusion) (Artificial Sequence) (chain, as listed by the source): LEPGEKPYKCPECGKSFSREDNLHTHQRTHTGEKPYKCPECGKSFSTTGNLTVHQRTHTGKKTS
Chain of ZF02 (two-finger zinc finger protein targeting AACTGA, YFP fusion) (Artificial Sequence) (chain, as listed by the source): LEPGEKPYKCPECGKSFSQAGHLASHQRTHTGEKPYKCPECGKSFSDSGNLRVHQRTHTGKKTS

B1: target nucleic acid 1 (AATTAG 20-mer duplex) (dsDNA)
DNA 1: TTTTTTTAATTAGTTTTTTT
DNA 2: AAAAAAACTAATTAAAAAAA
binding result [1]: binds

B2: target nucleic acid 2 (AACTGA 20-mer duplex) (dsDNA)
DNA 1: TTTTTTTAACTGATTTTTTT
DNA 2: AAAAAAATCAGTTAAAAAAA
binding result [2]: binds
